Measurements taken from PMC8218332 (Cell, 2021).

B1: mAb 278 (antibody, V domains shown)
VH: QVQLVQSGAEVKKPGASVKVSCKASGYIFIRYGISWVRQAPGQGLEWMGWISANNGYTNYAQKLQGRVTMTTDTSTSTAYMELRSLRSDDTAVYYCARDGGILTGYLDYFDHWGQGTLVTVSS
VL: DIQMTQSPSSLSASVGDRLTITCRASQSIASYLNWYQQKPGKAPKLLIYAASSLQSGVPSRFSGSGSGTDFTLTISSLQPEDFATYHCQQSYSTLGITFGPGTKVDIK
notes: copies: 2 + 2
B2: mAb 88 (antibody, V domains shown)
VH: QLQLQESGPGLVKPSQTLSLTCTVSGGSISSGSYNWTWIRQPAGKGLEWIGRIYNSGSTNYNPSLKSRVTISVDTSKNQLSLKVRSVTAADTAVYYCARHCSGGTCYPKYYYGMDVWGQGTTVTVSS
VL: QSALTQPPSVSEAPRQRVTISCSGSSSNIGNNAVNWYQQFPGKAPKLLIYYDDLLPSGVSDRFSGSKSGTSASLAISGVQSEDEADYYCAAWDDSLNVVVFGGGTKLTVL
notes: copies: 2 + 2
B3: mAb 222 (antibody, V domains shown)
VH: EVQLVESGGGLIQPGGSLRLSCAASGLTVSSNYMSWVRQAPGKGLEWVSVIYSGGSTFYADSVKGRFTISRDNSKNTLYLQMNSLGAEDTAVYYCARGEGSPGNWFDPWGQGTLVTVSS
VL: DVVMTQSPGTLSLSPGERATLSCRASQSVPSSYLAWYQQKPGQAPRLLIYGASTRATGIPDRFSGSGSGTDFTLTISRLEPEDFAVYYCQHYDTSPRFGGGTKVDIK
notes: copies: 2 + 2
B4: REGN10987 (antibody, V domains shown)
VH: QVQLVESGGGVVQPGRSLRLSCAASGFTFSNYAMYWVRQAPGKGLEWVAVISYDGSNKYYADSVKGRFTISRDNSKNTLYLQMNSLRTEDTAVYYCASGSDYGDYLLVYWGQGTLVTVSS
VL: QSALTQPASVSGSPGQSITISCTGTSSDVGGYNYVSWYQQHPGKAPKLMIYDVSKRPSGVSNRFSGSKSGNTASLTISGLQSEDEADYYCNSLTSISTWVFGGGTKLTVL
notes: source: provided by AstraZeneca; copies: 2 + 2
B5: mAb 316 (antibody, V domains shown)
VH: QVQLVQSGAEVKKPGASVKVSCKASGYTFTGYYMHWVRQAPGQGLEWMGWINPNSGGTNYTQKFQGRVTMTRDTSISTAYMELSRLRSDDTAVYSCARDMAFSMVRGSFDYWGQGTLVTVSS
VL: QAVLTQPPSASGSPGQSVTISCTGTSSDVGGYNYVSWYQQHPGKAPKLMIYEVSKRPSGVPDRFSGSKSGNTASLTVSGLQAEDEADYYCSSYAGSNHWVFGGGTKLTVL
notes: copies: 2 + 2

target: T1, His-tagged SARS-CoV-2 RBD T478K (SARS-CoV-2, Wuhan-Hu-1 RBD with T478K, T478K); test: BLI; conditions: both partners purified
T1 construct: not shown: His6, N-terminal, kept

Binder | Kd [nM]
B1 | 1.5
B2 | 2.4
B3 | 0.2
B4 | 0.35
B5 | 0.69
